According to IntAct's records for PubMed 25218446:

B1: Pre-mRNA leakage protein 1 (Saccharomyces cerevisiae), Q07930 (parent)
chain: MFHRRKRPYNTRNYGHDDKKFKSQYIDIMPDFSPSGLLELESNNKEGIALKHVEPQDAISPDNYMDMLGLEARDRTMYELVIYRKNDKDKGPWKRYDLNGRSCYLVGRELGHSLDTDLDDRTEIVVADIGIPEETSSKQHCVIQFRNVRGILKCYVMDLDSSNGTCLNNVVIPGARYIELRSGDVLTLSEFEEDNDYELIFMNV
partner: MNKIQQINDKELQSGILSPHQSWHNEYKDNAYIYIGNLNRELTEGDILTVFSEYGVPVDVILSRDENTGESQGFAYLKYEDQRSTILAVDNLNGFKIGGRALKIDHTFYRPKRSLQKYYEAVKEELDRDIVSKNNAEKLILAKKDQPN
B2: Pre-mRNA-splicing factor CWC26 (Saccharomyces cerevisiae), P46947 (parent)
chain: MALHQYLSETYGPTKPKNKTKKKKKESKSDANSDKTSLIVKERLSTLQQEQEKSGVASFSKFDKQKSKNIWKNLETNELSHAITHPSASSITGNESKNDLKEIRAQEPLVTVADKSKTRKTIYRDAQGHKIQEDSKIDDSSFSRSKYEDEKAAEREQYLKNLNMGDVQKLGINVDAHDKKKNQTASSLTIEDPAITFTHDKERTVKTSLLGRKLYDKPAPENRFAIMPGSRWDGVHRSNGFEEKWFAKQNEINEKKVQSYTLQEDY
partner: B1 partner

Variants of: B1
Conditions: with ist3_yeast IST3, P40565

Row | effect of a mutation on the interaction | Variant
1 | disrupting interaction strength | F32A
2 | decreasing interaction strength | L38A

Variants of: B2
Conditions: with ist3_yeast IST3, P40565

Row | effect of a mutation on the interaction | Variant
3 | decreasing interaction strength | F224A
4 | disrupting interaction strength | W232A
5 | decreasing interaction strength | V235A
6 | disrupting interaction strength | R237A
